This passage reports stoichiometry N results from article PMC11273545.

Several values for one entry are separate records, joined by “and”; a condition that tells them apart may be missing. Equal entries are not always repeated.

For assay [1], the target named is multimeric recombinant RBD protein (SARS-CoV-2 S protein residues 331-589 linked to the trimerization region of bacteriophage T4 and six histidines) (SARS-CoV-2 (Wuhan strain) | bacteriophage T4) (UniProt P0DTC2). The assay can be described thus: SEC; Superdex 200 column (30 x 1 cm) in TBS, 0.4 mL/min; calibrated with BSA (66 and 132 kDa), carbonic anhydrase (30 kDa) and beta-amylase (200 kDa); 135 kDa fractions pooled and re-applied.

Assay [2] shares this target. Kind of assay: cross-linking.

For the substance “multimeric recombinant RBD protein (SARS-CoV-2 S protein residues 331-589 linked to the trimerization region of bacteriophage T4 and six histidines) (from UniProt P0DTC2 331-589)”, the stoichiometry N is 3 in assay [1]; 3 and 6 in assay [2].
